# Results reported in IntAct's records for PubMed 12620189.
# B1: SCOCO-like protein 1 (Saccharomyces cerevisiae), Q3E784 (parent)
# chain: MSAENISTGSPTGKQPSSEVNLGEREAGTKNERMMRQTKLLKDTLDLLWNKTLEQQEVCEQLKQENDYLEDYIGNLMRSSNVLEK
# partner: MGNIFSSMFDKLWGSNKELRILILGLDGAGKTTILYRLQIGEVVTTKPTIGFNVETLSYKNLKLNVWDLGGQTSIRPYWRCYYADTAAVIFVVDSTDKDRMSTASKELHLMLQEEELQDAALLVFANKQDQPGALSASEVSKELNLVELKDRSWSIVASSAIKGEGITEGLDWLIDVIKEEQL
# Variants of: B1
# Settings: with arl1_yeast ARL1, P38116
row,effect of a mutation on the interaction,Variant
1,disrupting interaction,MSAENISTGSPTGKQPSSEVNLGEREAGTKNERMMRQTKLLKDTLDLLWNKTLEQQEVCEQLKQENDYLEDAIGNLMRSSNVLEK
